Results: article PMC4883682

Biological target: C-terminally labeled STIM1(del302-448) (STIM1(del302-448)-AcGFP / STIM1(del302-448)-mApple) (human) (UniProt Q13586)
Test: cross-linking; chemical crosslinking with dithiobis(succinymidyl propionate); constructs separately expressed; unstimulated state (Supplemental Figure S2)

stoichiometry N: 2
Substance: C-terminally labeled STIM1(del302-448) (STIM1(del302-448)-AcGFP / STIM1(del302-448)-mApple) (from UniProt Q13586 23-685) (natural protein)
